Here are results for three proteins from paper PMC4636328, “Two Polyhydroxyalkanoate Synthases from Distinct Classes from the Aromatic Degrader Cupriavidus pinatubonensis JMP134 Exhibit the Same Substrate Preference” (PLoS ONE, 2015).

Substrate in data set [1]: C[C@@H](O)CC(=O)SCCNC(=O)CCNC(=O)[C@H](O)C(C)(C)COP(=O)(O)OP(=O)(O)OC[C@H]1O[C@@H](n2cnc3c(N)ncnc32)[C@H](O)[C@@H]1OP(=O)(O)O
As to the kind of experiment: purified protein. Format: biochemical, Cupriavidus pinatubonensis. As to conditions: 50 mM PBS, pH 7.5, 20 mM MgCl2, 0.5 mM DTNB, R/S substrate mixture, R isomer counted.

Substrate in data set [2]: CCCCC[C@@H](O)CC(=O)SCCNC(=O)CCNC(=O)[C@H](O)C(C)(C)COP(=O)(O)OP(=O)(O)OC[C@H]1O[C@@H](n2cnc3c(N)ncnc32)[C@H](O)[C@@H]1OP(=O)(O)O
As to the kind of experiment: purified protein. The settings on record: 50 mM PBS, pH 7.5, 20 mM MgCl2, 0.5 mM DTNB, R/S substrate mixture, R isomer counted. Format: biochemical, Pseudomonas aeruginosa.

B1: PhaC1 (Cupriavidus pinatubonensis JMP134) (protein)
chain: MATGKGAAASSTEGKSQPFKFPPGPLDPATWLEWSRQWQGPEGNGGTVPGGFPGFEAFAASPLAGVKIDPAQLAEIQQRYMRDFTELWRGLAGGDTESAGKLHDRRFASEAWHKNAPYRYTAAFYLLNARALTELADAVEADPKTRQRIRFAVSQWVDAMSPANFLATNPDAQNRLIESRGESLRAGMRNMLEDLTRGKISQTDETAFEVGRNMAVTEGAVVFENEFFQLLQYKPLTDKVYTRPLLLVPPCINKFYILDLQPEGSLVRYAVEQGHTVFLVSWRNPDASMAGCTWDDYIENAAIRAIEVVRDISGQDKINTLGFCVGGTIISTALAVLAARGEHPVASLTLLTTLLDFTDTGILDVFVDEPHVQLREATLGGASGGLLRGVELANTFSFLRPNDLVWNYVVDNYLKGNTPVPFDLLFWNGDATNLPGPWYCWYLRHTYLQNELKEPGKLTVCNEPVDLGAINVPTYIYGSREDHIVPWTAAYASTALLKNDLRFVLGASGHIAGVINPPAKKKRSHWTNDALPESAQDWLAGAEEHHGSWWPDWMTWLGKQAGAKRAAPTEYGSKRYAAIEPAPGRYVKAKA
notes: full length (591 residues), C-terminal His6 tag, pET28a, E. coli BL21(DE3), Ni-NTA purified, about 65 kDa
In the case of B1, in “purified protein [1]”, the Km worked out at 45.46 ± 6.02 µM, the Vmax worked out at 38.3 µM/min, the kcat was 0.664 ± 0.0352 s⁻¹ and the kcat/Km was 14700 ± 3170 M⁻¹ s⁻¹.

B2: PhaC2 (Cupriavidus pinatubonensis JMP134) (protein)
chain: MTTAVGTRTLAKTTKKAKKPAASAVAPEAIVDSAPAMTGPNPFVGLRPEDMVSTAQQIGAQCVQEPTLLLQQQTKLAQDLFAVVDGSAPPPCTRDRRFGDPAWQDNPVYRMALQGYQAWRDALTGFVTGSVMDGRSKERAQYFTDLLIDAVAPTNTLLGNPAALRKTFESGGLNLVSGLVNLLTDTLTNQGMPSQVDKSAFRIGKDLAATPGAVVFRNDVLELIQYTPTTANVHARPQLIVPPQVNKFYVFDLSQGKSMVEYLVRNEMQVFMVSWRNPTTLHRDWNLDTYVGALIEAIHAIRDITGSPDVNLHGACSGAMTMSALMGYCAARGEKLVNAATLMVSVFGLDSQSQLGLFATPEAIDAARQGSQARGVLDGGELGRVFAWMRPNDLVWNYWVNNYLLGKAPPAFDILYWNNDTTRLPAGLHGQLLDMLTLNQLSTPGALRVLGQPIDLSAVDCDKYVLAGMTDHITPWKGVYRSVRAFGGKTEFVLSSSGHVQSLINPPGNAKAKFFLNDAQMADPEAWLEGATVTPSSWWEHWSEWLKTRSGPLNAAPSRLGSDRHAPCADAPGRYVTEA
notes: full length (579 residues), C-terminal His6 tag, pET28a, E. coli BL21(DE3), Ni-NTA purified, about 65 kDa
As to B2, in the data set “purified protein [1]”, the Michaelis-Menten constant (Km) was 115.93 ± 9.15 µM, the Vmax is 1.74 µM/min, the kcat stood at 0.0625 ± 0.000333 s⁻¹ and the kcat/Km turned out to be 533 ± 33.3 M⁻¹ s⁻¹.

B3: PhaC1Pa (Pseudomonas aeruginosa PAO1) (protein)
chain: MSQKNNNELPKQAAENTLNLNPVIGIRGKDLLTSARMVLLQAVRQPLHSARHVAHFSLELKNVLLGQSELRPGDDDRRFSDPAWSQNPLYKRYMQTYLAWRKELHSWISHSDLSPQDISRGQFVINLLTEAMSPTNSLSNPAAVKRFFETGGKSLLDGLGHLAKDLVNNGGMPSQVDMDAFEVGKNLATTEGAVVFRNDVLELIQYRPITESVHERPLLVVPPQINKFYVFDLSPDKSLARFCLRNGVQTFIVSWRNPTKSQREWGLTTYIEALKEAIEVVLSITGSKDLNLLGACSGGITTATLVGHYVASGEKKVNAFTQLVSVLDFELNTQVALFADEKTLEAAKRRSYQSGVLEGKDMAKVFAWMRPNDLIWNYWVNNYLLGNQPPAFDILYWNNDTTRLPAALHGEFVELFKSNPLNRPGALEVSGTPIDLKQVTCDFYCVAGLNDHITPWESCYKSARLLGGKCEFILSNSGHIQSILNPPGNPKARFMTNPELPAEPKAWLEQAGKHADSWWLHWQQWLAERSGKTRKAPASLGNKTYPAGEAAPGTYVHER
notes: full length, C-terminal His6 tag, pET28a, E. coli BL21(DE3), Ni-NTA purified
Take B3: in the data set “purified protein [2]”, the Km was 67.28 ± 12.86 µM, the Vmax is 39 µM/min, the kcat was 0.94 ± 0.0883 s⁻¹ and the kcat/Km was determined as 13800 ± 4170 M⁻¹ s⁻¹.

A word on the Km: it is the concentration of substrate that gives half-maximal velocity. Usually Vmax stands for the top rate of the reaction or transport when substrate is in excess. One may read the kcat as the number of substrate molecules converted per active site and unit of time at saturation. Broadly, the kcat/Km is the turnover number divided by the Michaelis constant.
